In the supplement of paper PMC10567573:

B1: DFFB (parent)
chain: TLVEAIKEQDGREVDWEYFYGLLF
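Also: lentivirally expressed fusions sorted by FACS into six bins by GFP to DsRed ratio, PSI derived from sequencing read proportions per bin multiplied by bin number.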

Variants of: B1
Assay: protein stability index of a GFP-peptide fusion (GPS, HEK-293T) (PSI 1-6); higher = more stable
Conditions: c terminus: a fixed tail appended
TLVEAIKEQDGREVDWEYMYGLLF [F19M] showed a protein stability index of 2.17. With TLVEAIKEQDGREVDWEYTYGLLF [F19T] the protein stability index was 2.69. For TLVEAIKEQDGREVDWEYNYGLLF [F19N], the protein stability index was 2.24. With TLVEAIKEQDGREVDWEYSYGLLF [F19S] the protein stability index was 2.68. Work on TLVEAIKEQDGREVDWEYFYGFLF [L22F] yielded a protein stability index of 1.52. Work on TLVEAIKEQDGREVDWEYFYGALF [L22A] yielded a protein stability index of 2. In the case of TLVEAIKEQDGREVDMEYFYGLLF [W16M], the protein stability index is reported as 2.05. In the case of TLVEAIKEQDGREVDSEYFYGLLF [W16S], the protein stability index is reported as 2.84. TLVEAIKEQDGREVDHEYFYGLLF [W16H] gave a protein stability index of 1.58. Work on TLVEAIKEQDGREVDQEYFYGLLF [W16Q] yielded a protein stability index of 2.17. Variant TLVEAIKEQDGREVDAEYFYGLLF [W16A] has a protein stability index of 2.06. TLVEAHKEQDGREVDWEYFYGLLF [I6H] showed a protein stability index of 2.58. TLVEAWKEQDGREVDWEYFYGLLF [I6W] showed a protein stability index of 1.38. For TWVEAIKEQDGREVDWEYFYGLLF [L2W], the protein stability index was 1.92. With TEVEAIKEQDGREVDWEYFYGLLF [L2E] the protein stability index was 3.08. For TMVEAIKEQDGREVDWEYFYGLLF [L2M], the protein stability index was 2.15. TLVEAIKEGDGREVDWEYFYGLLF [Q9G] showed a protein stability index of 1.26. For TLVEAIKEVDGREVDWEYFYGLLF [Q9V], the protein stability index was 1.24. In the case of TLVEAIKETDGREVDWEYFYGLLF [Q9T], the protein stability index is reported as 2. In the case of TLVEAIKEPDGREVDWEYFYGLLF [Q9P], the protein stability index is reported as 3. In the case of TLVEAIKEQDGREVDWMYFYGLLF [E17M], the protein stability index is reported as 1.78. Variant TLVEAIKEQDGREVDWHYFYGLLF [E17H] has a protein stability index of 2.08. With TLVEAIKEQDGREVDWQYFYGLLF [E17Q] the protein stability index was 2.21. TLVEAIKEQDGREVDWGYFYGLLF [E17G] gave a protein stability index of 2.38. Work on TLVEAIKEQDGRNVDWEYFYGLLF [E13N] yielded a protein stability index of 1.79. For TLVEAIKEQDGRGVDWEYFYGLLF [E13G], the protein stability index was 3.05. With TLVEAIKEQDGRTVDWEYFYGLLF [E13T] the protein stability index was 1.98. In the case of TLVEAIKEQDGRKVDWEYFYGLLF [E13K], the protein stability index is reported as 3.03. With TLVEAIKEQDGRPVDWEYFYGLLF [E13P] the protein stability index was 1.67. TLVEAIKEQDGRWVDWEYFYGLLF [E13W] gave a protein stability index of 2.27. For TLVEAIKEQDGRAVDWEYFYGLLF [E13A], the protein stability index was 1.74. In the case of TLVEAIKEQDGRIVDWEYFYGLLF [E13I], the protein stability index is reported as 2.36. Variant TLVEAIKEQDGREVDWEYFYPLLF [G21P] has a protein stability index of 1.46. Work on TLVEAIKEQDGREVDWEYFYLLLF [G21L] yielded a protein stability index of 1.35. TLVEAIKEQDGREVDWEYFYHLLF [G21H] showed a protein stability index of 2.37. With TLVEAIKEQDGREVDWEYFYRLLF [G21R] the protein stability index was 1.84. Variant TLVEAIKEQDGREVDWEYFYTLLF [G21T] has a protein stability index of 1.88. With TLVEAIKEQDNREVDWEYFYGLLF [G11N] the protein stability index was 2.13. With TLVEAIKEQDTREVDWEYFYGLLF [G11T] the protein stability index was 2.28. Variant TLVEAIKFQDGREVDWEYFYGLLF [E8F] has a protein stability index of 1.1. TLVEAIKAQDGREVDWEYFYGLLF [E8A] gave a protein stability index of 1.88. TLVEAIKNQDGREVDWEYFYGLLF [E8N] showed a protein stability index of 2.53. TLVEAIKEQTGREVDWEYFYGLLF [D10T] showed a protein stability index of 1.59. Variant TLVEAIKEQQGREVDWEYFYGLLF [D10Q] has a protein stability index of 1.71. For TLVEAIKEQLGREVDWEYFYGLLF [D10L], the protein stability index was 1.91. In the case of TLVEAIKEQNGREVDWEYFYGLLF [D10N], the protein stability index is reported as 1.86. TLVEAIKEQSGREVDWEYFYGLLF [D10S] showed a protein stability index of 2.37. Work on TLVEAIKEQCGREVDWEYFYGLLF [D10C] yielded a protein stability index of 1.99. With TLVEAIKEQVGREVDWEYFYGLLF [D10V] the protein stability index was 1.73. Variant TLVEAIKEQYGREVDWEYFYGLLF [D10Y] has a protein stability index of 1.92. In the case of WLVEAIKEQDGREVDWEYFYGLLF [T1W], the protein stability index is reported as 1.65. HLVEAIKEQDGREVDWEYFYGLLF [T1H] showed a protein stability index of 1.89. With PLVEAIKEQDGREVDWEYFYGLLF [T1P] the protein stability index was 2.54. Variant RLVEAIKEQDGREVDWEYFYGLLF [T1R] has a protein stability index of 1.59. VLVEAIKEQDGREVDWEYFYGLLF [T1V] showed a protein stability index of 3.13. With QLVEAIKEQDGREVDWEYFYGLLF [T1Q] the protein stability index was 2.37. For GLVEAIKEQDGREVDWEYFYGLLF [T1G], the protein stability index was 2.05. Work on MLVEAIKEQDGREVDWEYFYGLLF [T1M] yielded a protein stability index of 1.31. YLVEAIKEQDGREVDWEYFYGLLF [T1Y] gave a protein stability index of 2.13. In the case of TLVFAIKEQDGREVDWEYFYGLLF [E4F], the protein stability index is reported as 2.38. With TLVEAIKEQDGREVDWEYFYGLLN [F24N] the protein stability index was 1.95. Variant TLVEAIKEQDGREVDWEYFYGLLQ [F24Q] has a protein stability index of 2.27. With TLVEAIKEQDGREVDWEYFYGLLR [F24R] the protein stability index was 1.63. Variant TLVEAIKEQDGREVDWEYFYGLLE [F24E] has a protein stability index of 2.22. TLVEAIVEQDGREVDWEYFYGLLF [K7V] gave a protein stability index of 1.64. For TLVEAIGEQDGREVDWEYFYGLLF [K7G], the protein stability index was 1.79. In the case of TLVEAIYEQDGREVDWEYFYGLLF [K7Y], the protein stability index is reported as 3.52. In the case of TLVEAIWEQDGREVDWEYFYGLLF [K7W], the protein stability index is reported as 2.15. With TLVEAIKEQDGREVPWEYFYGLLF [D15P] the protein stability index was 2.2. In the case of TLVEAIKEQDGREVRWEYFYGLLF [D15R], the protein stability index is reported as 1.75. With TLVEAIKEQDGREVTWEYFYGLLF [D15T] the protein stability index was 2.08. For TLLEAIKEQDGREVDWEYFYGLLF [V3L], the protein stability index was 2.22. TLQEAIKEQDGREVDWEYFYGLLF [V3Q] showed a protein stability index of 1.88. With TLWEAIKEQDGREVDWEYFYGLLF [V3W] the protein stability index was 1.76. With TLVEAIKEQDGSEVDWEYFYGLLF [R12S] the protein stability index was 1.84. In the case of TLVEAIKEQDGQEVDWEYFYGLLF [R12Q], the protein stability index is reported as 2.41. For TLVEAIKEQDGEEVDWEYFYGLLF [R12E], the protein stability index was 2.44. With TLVEAIKEQDGPEVDWEYFYGLLF [R12P] the protein stability index was 2.16. TLVEAIKEQDGGEVDWEYFYGLLF [R12G] gave a protein stability index of 1.74. TLVEAIKEQDGREVDWEYFYGLRF [L23R] showed a protein stability index of 2.5. In the case of TLVEAIKEQDGREVDWEYFYGLPF [L23P], the protein stability index is reported as 2.18. Work on TLVEAIKEQDGREVDWEIFYGLLF [Y18I] yielded a protein stability index of 2.06. In the case of TLVEAIKEQDGREVDWELFYGLLF [Y18L], the protein stability index is reported as 1.25. TLVEAIKEQDGREVDWEHFYGLLF [Y18H] gave a protein stability index of 3.81. In the case of TLVEGIKEQDGREVDWEYFYGLLF [A5G], the protein stability index is reported as 2.68. For TLVEIIKEQDGREVDWEYFYGLLF [A5I], the protein stability index was 1.36. TLVEVIKEQDGREVDWEYFYGLLF [A5V] showed a protein stability index of 1.48. TLVEYIKEQDGREVDWEYFYGLLF [A5Y] gave a protein stability index of 2.73. Work on TLVEAIKEQDGREDDWEYFYGLLF [V14D] yielded a protein stability index of 1.28. With TLVEAIKEQDGREIDWEYFYGLLF [V14I] the protein stability index was 2.05. TLVEAIKEQDGREQDWEYFYGLLF [V14Q] showed a protein stability index of 1.7. Variant TLVEAIKEQDGREVDWEYFTGLLF [Y20T] has a protein stability index of 1.54. TLVEAIKEQDGREVDWEYFHGLLF [Y20H] showed a protein stability index of 2.03. Work on TLVEAIKEQDGREVDWEYFGGLLF [Y20G] yielded a protein stability index of 1.79.
